Target: TOPOIIIalpha (TRR complex);RMI1 (TRR complex);RMI2 (TRR complex) (Homo sapiens;Homo sapiens;Homo sapiens, UniProt Q13472;Q9H9A7;Q96E14 1-1001;1-625;1-147, ||)
Test: fluorescence anisotropy; 5 mM MgCl2; 50 mM Tris-HCl pH 7.5, 50 mM NaCl, 1 mM DTT, 5 mM MgCl2, 50 µg/mL BSA, 25 °C; 10 nM labeled DNA in direct titrations
Details: protein: recombinant;recombinant;recombinant; tags: His;;; copies: 1;1;1; label: 3'-fluorescein; single strand

Chain of TOPOIIIalpha (TRR complex);RMI1 (TRR complex);RMI2 (TRR complex) (Q13472 whole entry, chain 1 of 3): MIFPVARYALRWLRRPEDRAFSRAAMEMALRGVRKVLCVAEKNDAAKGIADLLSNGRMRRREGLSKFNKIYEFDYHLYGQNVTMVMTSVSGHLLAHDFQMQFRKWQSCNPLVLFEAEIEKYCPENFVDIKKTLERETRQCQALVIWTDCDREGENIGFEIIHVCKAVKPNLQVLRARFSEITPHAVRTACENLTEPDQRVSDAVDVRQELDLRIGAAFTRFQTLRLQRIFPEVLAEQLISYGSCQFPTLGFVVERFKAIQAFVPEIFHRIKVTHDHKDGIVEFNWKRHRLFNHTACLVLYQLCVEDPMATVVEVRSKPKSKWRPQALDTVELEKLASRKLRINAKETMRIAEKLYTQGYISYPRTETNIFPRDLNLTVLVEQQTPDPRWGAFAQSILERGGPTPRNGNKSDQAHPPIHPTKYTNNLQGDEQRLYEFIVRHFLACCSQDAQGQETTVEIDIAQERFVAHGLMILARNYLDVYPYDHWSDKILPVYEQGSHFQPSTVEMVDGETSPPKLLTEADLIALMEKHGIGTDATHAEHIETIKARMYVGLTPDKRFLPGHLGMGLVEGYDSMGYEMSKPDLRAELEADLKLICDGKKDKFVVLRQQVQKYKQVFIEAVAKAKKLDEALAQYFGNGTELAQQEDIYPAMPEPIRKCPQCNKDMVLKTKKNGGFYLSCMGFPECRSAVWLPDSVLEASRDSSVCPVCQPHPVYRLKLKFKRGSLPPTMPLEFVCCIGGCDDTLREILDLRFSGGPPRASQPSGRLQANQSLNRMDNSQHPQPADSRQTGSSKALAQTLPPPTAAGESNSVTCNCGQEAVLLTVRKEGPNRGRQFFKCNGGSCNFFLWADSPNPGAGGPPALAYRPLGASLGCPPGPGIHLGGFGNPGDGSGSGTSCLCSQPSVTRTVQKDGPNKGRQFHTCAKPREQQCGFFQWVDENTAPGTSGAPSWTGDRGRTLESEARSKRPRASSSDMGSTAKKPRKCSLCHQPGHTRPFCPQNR
Chain of TOPOIIIalpha (TRR complex);RMI1 (TRR complex);RMI2 (TRR complex) (Q9H9A7 whole entry, chain 2 of 3): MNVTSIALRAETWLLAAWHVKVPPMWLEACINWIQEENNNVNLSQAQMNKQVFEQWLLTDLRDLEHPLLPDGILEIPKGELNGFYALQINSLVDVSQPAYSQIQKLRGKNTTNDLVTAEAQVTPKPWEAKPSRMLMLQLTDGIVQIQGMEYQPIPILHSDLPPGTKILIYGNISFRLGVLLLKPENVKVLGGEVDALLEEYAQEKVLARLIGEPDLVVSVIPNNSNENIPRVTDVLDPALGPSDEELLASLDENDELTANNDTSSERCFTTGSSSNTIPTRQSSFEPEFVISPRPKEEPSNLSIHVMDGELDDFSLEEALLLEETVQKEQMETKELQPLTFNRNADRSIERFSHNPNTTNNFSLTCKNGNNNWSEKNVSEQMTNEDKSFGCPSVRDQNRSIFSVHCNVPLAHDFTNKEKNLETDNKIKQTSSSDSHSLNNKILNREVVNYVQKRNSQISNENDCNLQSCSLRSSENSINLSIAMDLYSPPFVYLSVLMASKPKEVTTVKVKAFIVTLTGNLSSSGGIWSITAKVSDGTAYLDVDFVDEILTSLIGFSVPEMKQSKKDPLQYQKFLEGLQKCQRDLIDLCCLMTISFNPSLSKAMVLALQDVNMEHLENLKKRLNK
Chain of TOPOIIIalpha (TRR complex);RMI1 (TRR complex);RMI2 (TRR complex) (Q96E14 whole entry, chain 3 of 3): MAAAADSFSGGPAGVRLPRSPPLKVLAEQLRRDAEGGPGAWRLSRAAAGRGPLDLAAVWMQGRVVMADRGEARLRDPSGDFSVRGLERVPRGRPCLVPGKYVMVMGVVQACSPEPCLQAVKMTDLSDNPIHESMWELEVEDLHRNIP

B1: ss54-FLU (ssDNA)
DNA: TCCTTTTGATAAGAGGTCATTTTTGCGGATGGCTTAGAGCTTAATTGCGCAACG
B1 showed a Kd of 64 ± 13 nM.
